The results in this text go back to paper PMC5053906 (Neuron, 2016).

The series deals with the molecule itself. In words: single molecule subunit counting.

A word on the stoichiometry N: it is the number of molecules, sites or subunits per partner or assembly.

B1: C-terminally GFP-tagged mGluR2 (receptor, rat, UniProt P31421 19-872, looked up)
chain: EGPAKKVLTLEGDLVLGGLFPVHQKGGPAEECGPVNEHRGIQRLEAMLFALDRINRDPHLLPGVRLGAHILDSCSKDTHALEQALDFVRASLSRGADGSRHICPDGSYATHSDAPTAVTGVIGGSYSDVSIQVANLLRLFQIPQISYASTSAKLSDKSRYDYFARTVPPDFFQAKAMAEILRFFNWTYVSTVASEGDYGETGIEAFELEARARNICVATSEKVGRAMSRAAFEGVVRALLQKPSARVAVLFTRSEDARELLAATQRLNASFTWVASDGWGALESVVAGSERAAEGAITIELASYPISDFASYFQSLDPWNNSRNPWFREFWEERFHCSFRQRDCAAHSLRAVPFEQESKIMFVVNAVYAMAHALHNMHRALCPNTTHLCDAMRPVNGRRLYKDFVLNVKFDAPFRPADTDDEVRFDRFGDGIGRYNIFTYLRAGSGRYRYQKVGYWAEGLTLDTSFIPWASPSAGPLPASRCSEPCLQNEVKSVQPGEVCCWLCIPCQPYEYRLDEFTCADCGLGYWPNASLTGCFELPQEYIRWGDAWAVGPVTIACLGALATLFVLGVFVRHNATPVVKASGRELCYILLGGVFLCYCMTFVFIAKPSTAVCTLRRLGLGTAFSVCYSALLTKTNRIARIFGGAREGAQRPRFISPASQVAICLALISGQLLIVAAWLVVEAPGTGKETAPERREVVTLRCNHRDASMLGSLAYNVLLIALCTLYAFKTRKCPENFNEAKFIGFTMYTTCIIWLAFLPIFYVTSSDYRVQTTTMCVSVSLSGSVVLGCLFAPKLHIILFQPQKNVVSHRAPTSRFGSAAPRASANLGQGSGSQFVPTVCNGREVVDSTTSSL
For B1, the “stoichiometry N” value came to 2.
